Data on 2 substances can be found in article PMC4066659.

For the assay, the target named is assembled microtubules. Briefly: co-sedimentation.

Take “His6-Eg5[Ser1033Asp] (baculovirus) (from UniProt P52732 1-1056) (natural protein)”: the percent of wildtype Eg5 recovered in the microtubule pellet worked out at 42%.

On to “His6-Eg5[Thr926Ala] (baculovirus) (from UniProt P52732 1-1056) (natural protein)”, for which the percent of wildtype Eg5 recovered in the microtubule pellet amounted to 28%.
